Measurements as given in patent US10760112B2, “Enzymatic activity assays for glucocerebrosidase” (Shire Human Genetic Therapies, Inc., priority 2014, dated 2020).

How the values were obtained:
[1] = Enzyme kinetics assay with C18:1 glucosylceramide substrate, glucose detected by HPAEC-PAD; type: biochemical
Procedure: Sonication was used to achieve a consistent substrate preparation. A sonicator was pre-set to 60% AMPL and 5 minutes. A 4 oz. amber bottle of substrate dilution buffer (4 mM taurocholic acid, 0.2% v/v oleic acid in citrate/phosphate buffer pH 5.0) was placed in the noise isolation chamber and the sonicator probe was immersed into the solution. The substrate dilution buffer was sonicated at 60% AMPL for 5 minutes. Following sonication, the noise isolation chamber was opened. A second cycle of sonication at 60% AMPL for 5 minutes was initiated while the amber bottle was gently swirled. After 5 minutes, the substrate dilution buffer was cloudy. Approximately 15-20 mg of C18:1 glucosylceramide was weighed in a clean 2 oz. amber bottle. Sonicated substrate dilution buffer was added to bring the concentration of C18:1 glucosylceramide to 0.64 mg/mL (approximately 880 μM). Next, the same sonication steps were repeated for the 2 oz. amber bottle of 880 μM C18:1 glucosylceramide, with the additional consideration that, prior to the step of gently swirling the bottle while sonicating, it was ensured that all substrate particles were in the biphasic mixture. Sonication and swirling were continued until there were no visible particles in the mixture.
After the sonication procedure, two stocks were prepared for use in the assay. A first reagent reservoir filled with sonicated substrate dilution buffer. A second reagent reservoir was filled with 6 mL sonicated substrate dilution buffer and 2 mL of the 880 μM C18:1 glucosylceramide (final substrate concentration of 220 μM C18:1 glucosylceramide).
A dilution series of substrate was prepared in a 96-well plate having columns 1-12, rows A-H, and a well volume of 0.5 mL. Each well of rows A-G was filled with 170 μL substrate dilution buffer. In addition, 200 μL substrate solution of different concentrations were transferred to the appropriate wells of rows A to G according to Table 2. Substrate dilution buffer and substrate solution were mixed by pipetting.
Frozen experimental and assay control samples were thawed in a 37° C. water bath for <5 min. In the present examples, the sample is a sample of enzyme. After thawing, each tube was placed on ice. Dilutions of the samples were then prepared at room temperature. To prepare the sample dilutions, sample dilution buffer (50 mM citrate buffer pH 6.0, 0.75 mg/ml BSA) was placed on ice in centrifuge tubes, each tube containing 990 μL sonicated sample dilution buffer. Tubes of sample dilution buffer were briefly vortexed (1-3 seconds) and pulse centrifuged to collect the liquid to the bottom of the tube. A 10 μL aliquot of each sample was transferred into a dedicated tube of sample dilution buffer to prepare a 1:100 dilution. Samples were diluted in triplicate. Samples were briefly vortexed to ensure proper mixing. Next, a 10 μL aliquot of each of 1:100 diluted sample was transferred to a dedicated second tube having been preloaded with 990 μL sample dilution buffer, resulting in a 1:10,000 dilution. Samples were briefly vortexed to ensure proper mixing. Next, the 1:10,000 dilution was used to prepare a 1 mL dilution having a final concentration of 0.02 ng/μL. In particular, the volume of the 1:10,000 dilution needed to dilute the enzyme to 0.02 ng/μL in 1 mL was determined and transferred from the second tube into the a third dedicated tube preloaded with an amount of sample dilution buffer calculated to result in a total volume of 1 mL at 0.02 ng/μL. Accordingly, when 10 μL of 0.02 ng/μL enzyme is mixed with 100 μL of substrate solution, the final concentration of enzyme is 0.0290 nM, assuming a monomer with a relative molecular mass of 62.8 kDa. Samples were briefly vortexed to ensure proper mixing. Final dilution tubes were placed on ice.
Briefly, velaglucerase alfa was incubated with C18:1 glucosylceramide at eight concentrations of substrate (2.70-200 μM) and in 110 μL reactions for 20 min at 37° C. with appropriate standards and/or controls. […]

[2] = Velaglucerase activity at varying levels of sodium taurocholate; type: biochemical; settings: range tested 2 mM to 25 mM sodium taurocholate
Procedure: Assays of velaglucerase activity were carried out in the presence of varying levels of sodium taurocholate or oleic acid. Sodium taurocholate is an anionic detergent that has been, in some cases, used to facilitate lipid-based substrate solubility in aqueous environments. The effect of sodium taurocholate was examined over a concentration range of 2 mM to 25 mM (FIG. 6).

[3] = Photo Stress (forced degradation, oxidation by light exposure)

B1: velaglucerase: recombinant form of glucocerebrosidase approved as long-term enzyme replacement therapy for Gaucher disease (SEQ ID NO: 1) (protein)
chain: ARPCIPKSFGYSSVVCVCNATYCDSFDPPTFPALGTFSRYESTRSGRRMELSMGPIQANHTGTGLLLTLQPEQKFQKVKGFGGAMTDAAALNILALSPPAQNLLLKSYFSEEGIGYNIIRVPMASCDFSIRTYTYADTPDDFQLHNFSLPEEDTKLKIPLIHRALQLAQRPVSLLASPWTSPTWLKTNGAVNGKGSLKGQPGDIYHQTWARYFVKFLDAYAEHKLQFWAVTAENEPSAGLLSGYPFQCLGFTPEHQRDFIARDLGPTLANSTHHNVRLLMLDDQRLLLPHWAKVVLTDPEAAKYVHGIAVHWYLDFLAPAKATLGETHRLFPNTMLFASEACVGSKFWEQSVRLGSWDRGMQYSHSIITNLLYHVVGWTDWNLALNPEGGPNWVRNFVDS
With B1 the Km ([1]; Baseline (unstressed control)) was 4.9 µM, the kcat ([1]; Baseline (unstressed control)) was 90.7 s⁻¹ and the Km [1, 3] was 6.7 µM. The kcat [1, 3] was 76.8 s⁻¹, the “change in kcat, stressed sample vs baseline” value ([1]; photo stress vs unstressed control) was “clear decrease” and the “change in Km, stressed sample vs baseline” value ([1]; photo stress vs unstressed control, not considered significant) was “minor increase”. The “optimal concentration of sodium taurocholate” value [2] was 6.5 mM and the “sodium taurocholate concentration above which activity gradually declined” value [2] was “above 8 mM”.
